T1: OkrAI (Oceanospirillum kriegii, UniProt E2JKI3 1-194)
T1 sequence: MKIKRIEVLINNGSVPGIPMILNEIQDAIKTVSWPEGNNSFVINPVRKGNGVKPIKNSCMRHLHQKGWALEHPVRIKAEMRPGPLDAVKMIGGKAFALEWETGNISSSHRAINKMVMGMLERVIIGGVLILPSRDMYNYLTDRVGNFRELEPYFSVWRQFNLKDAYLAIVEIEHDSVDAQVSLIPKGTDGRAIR

T2: BamHI (Bacillus amyloliquefaciens, UniProt P23940 1-213)
T2 sequence: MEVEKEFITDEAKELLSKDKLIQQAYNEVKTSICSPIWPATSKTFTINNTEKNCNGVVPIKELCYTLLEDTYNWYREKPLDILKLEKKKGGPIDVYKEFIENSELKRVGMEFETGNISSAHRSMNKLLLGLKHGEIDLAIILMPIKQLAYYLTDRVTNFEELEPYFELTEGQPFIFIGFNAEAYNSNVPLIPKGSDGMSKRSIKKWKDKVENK


Assays:
[1] = target: T1, OkrAI; test: X-ray crystallography
[2] = target: T1, OkrAI; test: fluorescence anisotropy
[3] = target: T2, BamHI; test: fluorescence anisotropy

Binder	binding result [1]	Kd [2] [µM]	Kd [3] [µM]
palindromic 12-mer (dsDNA) DNA 1: TATGGATCCATA DNA 2: TATGGATCCATA	binds		
20-mer cognate duplex (dsDNA) DNA 1: TATGAGCGGATCCTTACGAG DNA 2: CTCGTAAGGATCCGCTCATA		0.0129	0.0083

Reference: publication PMC3025578
